Experimental data taken from patent US20020127222A1 (VEGENICS, published 2002).

T1: VEGFR-3-Ig (extracellular domain of human VEGFR-3 fused to the Fc portion of human IgG1) (human, UniProt P35916 25-775)
T1 construct: extracellular domain; Expressed in 293T cells, captured on protein A Sepharose; not shown: Fc portion of human IgG1
T1 sequence (looked up): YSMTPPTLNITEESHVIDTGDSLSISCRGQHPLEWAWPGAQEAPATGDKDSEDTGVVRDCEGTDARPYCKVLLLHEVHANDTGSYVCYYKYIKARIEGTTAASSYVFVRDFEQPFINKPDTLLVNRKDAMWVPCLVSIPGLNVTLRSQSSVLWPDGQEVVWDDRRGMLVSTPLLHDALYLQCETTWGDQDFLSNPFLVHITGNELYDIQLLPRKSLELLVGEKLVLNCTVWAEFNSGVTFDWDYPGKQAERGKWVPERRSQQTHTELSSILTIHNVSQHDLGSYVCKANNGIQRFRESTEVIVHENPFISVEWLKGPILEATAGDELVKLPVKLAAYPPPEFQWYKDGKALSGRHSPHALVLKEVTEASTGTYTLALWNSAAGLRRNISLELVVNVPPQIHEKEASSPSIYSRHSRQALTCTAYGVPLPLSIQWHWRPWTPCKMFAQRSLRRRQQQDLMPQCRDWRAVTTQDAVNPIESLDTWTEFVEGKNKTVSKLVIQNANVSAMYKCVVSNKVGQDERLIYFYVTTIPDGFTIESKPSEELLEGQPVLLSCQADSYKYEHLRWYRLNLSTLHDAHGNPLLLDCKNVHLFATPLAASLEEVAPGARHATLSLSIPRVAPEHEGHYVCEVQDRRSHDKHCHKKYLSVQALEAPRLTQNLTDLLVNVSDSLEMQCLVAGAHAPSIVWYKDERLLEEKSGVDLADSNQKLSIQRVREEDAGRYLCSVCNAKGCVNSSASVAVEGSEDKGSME

B1: VEGF-DΔNΔC (human VEGF-D amino acid residues 93 to 201 tagged with the FLAG octapeptide adjacent to the N-terminus) (ligand, not shown: small tags and cut ends)
chain: FYDIETLKVIDEEWQRTQCSPRETCVEVASELGKSTNTFFKPPCVNVFRCGGCCNEESLICMNTSTSYISKQLFEISVPLTSVPELVPVKVANHTGCKCLPTAPRHPYS
notes: purified from COS cells for the enzyme immunoassay; human VEGF-D?N?C
B2: VEGF-DΔNΔC monomer (size exclusion peak 3, 25 kDa) (ligand)
chain: B1 chain
notes: also called VEGF-D?N?C monomer; monomeric form of VEGF-D?N?C; not shown: FLAG octapeptide tag at the N-terminus
B3: human VEGF165 (ligand, UniProt P15692-4 27-191, looked up)
chain: APMAEGGGQNHHEVVKFMDVYQRSYCHPIETLVDIFQEYPDEIEYIFKPSCVPLMRCGGCCNDEGLECVPTEESNITMQIMRIKPHQGQHIGEMSFLQHNKCECRPKKDRARQENPCGPCSERRKHLFVQDPQTCKCSCKNTDSRCKARQLELNERTCRCDKPRR
notes: 35S-labeled conditioned medium

What was measured:
[1] = molecular target: chimeric receptor containing the extracellular domain of VEGFR-2, on Ba/F3 cells; assay: cell-based or functional assay
[2] = molecular target: T2, VEGFR-1-Ig (extracellular domain of human VEGFR-1 fused to the Fc portion of human IgG1) (human, UniProt P17948 27-758); assay: precipitation of 35S-labeled ligand from conditioned medium by receptor-Ig on protein A Sepharose, SDS-PAGE
T2 construct: extracellular domain; Expressed in 293T cells, captured on protein A Sepharose; not shown: Fc portion of human IgG1
T2 sequence (P17948 27-758): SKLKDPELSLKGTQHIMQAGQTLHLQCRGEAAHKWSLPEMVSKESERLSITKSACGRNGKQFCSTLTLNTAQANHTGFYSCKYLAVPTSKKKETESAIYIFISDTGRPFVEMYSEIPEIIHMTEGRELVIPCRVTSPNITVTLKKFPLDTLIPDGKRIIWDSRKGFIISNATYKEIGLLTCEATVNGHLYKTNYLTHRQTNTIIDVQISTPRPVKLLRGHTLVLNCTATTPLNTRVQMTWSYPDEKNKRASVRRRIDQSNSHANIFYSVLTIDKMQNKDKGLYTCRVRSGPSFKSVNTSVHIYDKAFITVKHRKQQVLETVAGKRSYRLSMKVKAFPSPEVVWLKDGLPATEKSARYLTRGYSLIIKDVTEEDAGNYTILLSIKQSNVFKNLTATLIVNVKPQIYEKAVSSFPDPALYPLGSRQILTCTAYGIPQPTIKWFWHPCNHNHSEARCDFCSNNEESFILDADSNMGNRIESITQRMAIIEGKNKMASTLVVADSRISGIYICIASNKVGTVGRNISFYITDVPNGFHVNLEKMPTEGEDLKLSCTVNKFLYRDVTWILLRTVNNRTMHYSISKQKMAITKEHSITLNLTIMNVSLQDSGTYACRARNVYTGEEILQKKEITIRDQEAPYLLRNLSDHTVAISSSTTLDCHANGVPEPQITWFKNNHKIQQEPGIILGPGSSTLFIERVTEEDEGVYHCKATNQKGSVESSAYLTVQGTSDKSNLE
Description: (§1) To further assess the interactions between VEGF-D and the VEGF receptors, VEGF-DΔNΔC was tested for its capacity to bind to soluble immunoglobulin fusion proteins comprising the extracellular domains of human VEGFR-1, human VEGFR-2 and human VEGFR-3. The corresponding fragment of VEGF-C, VEGF-CΔNΔC, was used for comparison. For binding experiments, 293T human embryonal kidney cells were transfected with plasmids encoding the soluble receptor-immunoglobulin fusion proteins VEGFR-1-Ig, VEGFR-2-Ig or VEGFR-3-Ig using the calcium-phosphate (Ca-phosphate) method. In these fusion proteins, the extracellular domain of the relevant VEGF receptor is fused to the Fc portion of human IgG₁. The cells were incubated for 24 hours after transfection, washed with Dulbecco's Modified Eagle's Medium (DMEM) containing 0.2% bovine serum albumin (BSA) and starved for 24 hours. Media were then collected and clarified by centrifugation, and fusion proteins were precipitated using protein A Sepharose beads. […] Metabolic labeling of 293-EBNA cells was carried out essentially as described (Joukov et al., 1997). The Sepharose beads were then washed twice with binding buffer (0.5% BSA, 0.02% Tween 20, 1 μg/ml heparin in phosphate buffered saline (PBS)) at 4° C. and once with PBS, boiled in Laemmli sample buffer, and proteins were then analyzed by SDS-PAGE.
(§2) In FIG. 3, precipitation of labeled VEGF₁₆₅, VEGF-CΔNΔC and VEGF-DΔNΔC by VEGFR-1-Ig, VEGFR-2-Ig and VEGFR-3-Ig was carried out as described above. The fusion proteins used for the precipitations are shown to the right. “Vector” denotes results of precipitations from medium derived from cells transfected with expression vector lacking sequence encoding the VEGFs. The molecular weight markers are indicated in kDa

[3] = molecular target: T3, VEGFR-2-Ig (extracellular domain of human VEGFR-2 fused to the Fc portion of human IgG1) (human, UniProt P35968 20-764); assay: as above
T3 construct: extracellular domain; Expressed in 293T cells, captured on protein A Sepharose; not shown: Fc portion of human IgG1
T3 sequence (P35968 20-764): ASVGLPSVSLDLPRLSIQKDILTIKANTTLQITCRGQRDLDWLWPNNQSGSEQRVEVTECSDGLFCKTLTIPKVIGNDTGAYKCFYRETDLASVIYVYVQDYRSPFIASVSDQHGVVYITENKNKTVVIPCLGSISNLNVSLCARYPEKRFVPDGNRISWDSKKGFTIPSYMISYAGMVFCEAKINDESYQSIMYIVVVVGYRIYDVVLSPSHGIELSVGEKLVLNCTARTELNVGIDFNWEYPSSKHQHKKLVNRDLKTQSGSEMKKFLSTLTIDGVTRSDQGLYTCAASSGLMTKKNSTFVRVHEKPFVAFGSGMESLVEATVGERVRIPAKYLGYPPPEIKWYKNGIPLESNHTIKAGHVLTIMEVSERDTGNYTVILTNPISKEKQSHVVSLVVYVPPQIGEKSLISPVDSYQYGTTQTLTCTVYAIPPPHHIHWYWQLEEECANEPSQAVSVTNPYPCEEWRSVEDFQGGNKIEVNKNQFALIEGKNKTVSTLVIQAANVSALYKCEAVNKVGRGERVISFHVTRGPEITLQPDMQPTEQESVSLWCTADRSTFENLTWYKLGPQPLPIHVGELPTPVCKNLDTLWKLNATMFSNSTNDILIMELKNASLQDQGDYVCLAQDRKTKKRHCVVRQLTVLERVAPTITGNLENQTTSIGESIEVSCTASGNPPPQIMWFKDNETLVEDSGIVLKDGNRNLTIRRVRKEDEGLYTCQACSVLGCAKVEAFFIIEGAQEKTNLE
Description: as §1, §2

[4] = molecular target: T1, VEGFR-3-Ig (extracellular domain of …); assay: as above
Description: as §1, §2

[5] = molecular target: the molecule itself; assay: size exclusion chromatography and SDS-PAGE (self-association)

| Molecule | VEGFR-2 binding activity (Ba/F3 cell bioassay) of size exclusion peak 1 (% of that in peak 2) [1] | binding result [2] | binding result [3] | binding result [4] | binding result [5] |
| --- | --- | --- | --- | --- | --- |
| VEGF-DΔNΔC non-covalent homodimer (size exclusion peak 2, 49 kDa) (from UniProt O43915 93-201) (ligand) | 1 |  |  |  |  |
| B1 |  | no binding | binds | binds |  |
| B2 |  |  |  |  | binds |
| B3 |  | binds |  | no binding |  |
